The results in this text go back to the supplement of paper PMC10065799, “High-throughput profiling of sequence recognition by tyrosine kinases and SH2 domains using bacterial peptide display” (eLife, 2023).

For one series, the system named is AncSZ. Nature of the series: phosphorylation enrichment, bacterial display (enrichment ratio); higher = better substrate or ligand; peptides without Tyr show the background.
For the next series, the target named is MERTK (UniProt Q12866). The description is as above.
The next series addresses FGFR1 (UniProt P11362). The description is as above.
Another series has as its target Fyn (UniProt P06241). Described as above.
For another series, the system named is Fer (mouse). The description is as above.
A further series deals with Fes (UniProt P07332). The series is described as above.
The test system of another series is c-Abl (mouse). The description is as above.
In another series the target is Hck (UniProt P08631). The description is as above.
In a further series the target is Jak2 (UniProt O60674). The series is described as above.
The subject of another series is c-Src. Described as above.
A further series concerns the target EPHB1 (UniProt P54762). Described as above.
The next series addresses EPHB2 (UniProt P29323). The description is as above.
Another series deals with FGFR3 (UniProt P22607). Described as above.
In another series the target is SHP2-C SH2. Nature of the series: SH2 binding enrichment of the phosphorylated peptide, bacterial display (enrichment ratio); higher = better substrate or ligand; peptides without Tyr show the background.
Another series concerns the target Grb2 SH2 (UniProt P62993). The series is described as above.
Another series has as its target c-Src SH2. The description is as above.
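Wherever SH2 binding enrichment of the phosphorylated peptide, bacterial display is given: peptide library displayed on the E. coli surface as eCPX fusions, selected cells deep-sequenced, score is each peptide's frequency after selection divided by its frequency in the input.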
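Wherever phosphorylation enrichment, bacterial display is given: 11-residue human phosphosite peptides and single-mutation variants displayed on the E. coli surface, counted by deep sequencing, each peptide's frequency after selection divided by its frequency in the unselected input library; frequency after pTyr selection over input frequency; kinase dosed for 20-30% of maximal phosphorylation in three min.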

Chain of FGFR3 (P22607 whole entry, looked up): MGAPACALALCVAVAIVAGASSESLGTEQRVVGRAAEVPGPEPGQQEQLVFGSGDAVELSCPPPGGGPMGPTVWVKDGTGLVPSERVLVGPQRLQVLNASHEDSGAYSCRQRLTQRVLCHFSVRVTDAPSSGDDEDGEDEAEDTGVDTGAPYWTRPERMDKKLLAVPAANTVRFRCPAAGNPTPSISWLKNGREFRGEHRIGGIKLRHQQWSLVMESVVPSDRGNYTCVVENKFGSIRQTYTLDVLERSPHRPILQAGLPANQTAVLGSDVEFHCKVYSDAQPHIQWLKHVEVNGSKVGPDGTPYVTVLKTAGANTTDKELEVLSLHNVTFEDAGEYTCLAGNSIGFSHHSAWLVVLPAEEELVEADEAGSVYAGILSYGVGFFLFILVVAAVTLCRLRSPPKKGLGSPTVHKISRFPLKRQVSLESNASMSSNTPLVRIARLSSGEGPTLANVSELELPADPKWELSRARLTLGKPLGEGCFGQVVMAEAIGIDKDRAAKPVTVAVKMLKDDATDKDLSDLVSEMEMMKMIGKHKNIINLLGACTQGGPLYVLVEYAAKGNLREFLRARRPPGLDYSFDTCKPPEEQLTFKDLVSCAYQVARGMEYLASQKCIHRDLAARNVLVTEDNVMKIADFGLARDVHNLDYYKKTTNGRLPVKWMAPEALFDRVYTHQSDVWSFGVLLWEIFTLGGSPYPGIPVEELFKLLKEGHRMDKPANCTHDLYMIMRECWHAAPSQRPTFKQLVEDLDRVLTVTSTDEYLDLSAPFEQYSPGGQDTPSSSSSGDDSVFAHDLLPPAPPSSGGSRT
Chain of Grb2 SH2 (P62993 whole entry, looked up): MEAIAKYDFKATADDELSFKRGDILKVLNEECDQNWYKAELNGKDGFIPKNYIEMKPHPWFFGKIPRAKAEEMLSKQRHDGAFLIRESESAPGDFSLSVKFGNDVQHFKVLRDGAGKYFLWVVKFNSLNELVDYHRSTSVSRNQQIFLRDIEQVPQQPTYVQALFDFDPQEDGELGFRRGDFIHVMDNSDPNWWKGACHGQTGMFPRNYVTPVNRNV
Chain of EPHB2 (P29323 whole entry, looked up): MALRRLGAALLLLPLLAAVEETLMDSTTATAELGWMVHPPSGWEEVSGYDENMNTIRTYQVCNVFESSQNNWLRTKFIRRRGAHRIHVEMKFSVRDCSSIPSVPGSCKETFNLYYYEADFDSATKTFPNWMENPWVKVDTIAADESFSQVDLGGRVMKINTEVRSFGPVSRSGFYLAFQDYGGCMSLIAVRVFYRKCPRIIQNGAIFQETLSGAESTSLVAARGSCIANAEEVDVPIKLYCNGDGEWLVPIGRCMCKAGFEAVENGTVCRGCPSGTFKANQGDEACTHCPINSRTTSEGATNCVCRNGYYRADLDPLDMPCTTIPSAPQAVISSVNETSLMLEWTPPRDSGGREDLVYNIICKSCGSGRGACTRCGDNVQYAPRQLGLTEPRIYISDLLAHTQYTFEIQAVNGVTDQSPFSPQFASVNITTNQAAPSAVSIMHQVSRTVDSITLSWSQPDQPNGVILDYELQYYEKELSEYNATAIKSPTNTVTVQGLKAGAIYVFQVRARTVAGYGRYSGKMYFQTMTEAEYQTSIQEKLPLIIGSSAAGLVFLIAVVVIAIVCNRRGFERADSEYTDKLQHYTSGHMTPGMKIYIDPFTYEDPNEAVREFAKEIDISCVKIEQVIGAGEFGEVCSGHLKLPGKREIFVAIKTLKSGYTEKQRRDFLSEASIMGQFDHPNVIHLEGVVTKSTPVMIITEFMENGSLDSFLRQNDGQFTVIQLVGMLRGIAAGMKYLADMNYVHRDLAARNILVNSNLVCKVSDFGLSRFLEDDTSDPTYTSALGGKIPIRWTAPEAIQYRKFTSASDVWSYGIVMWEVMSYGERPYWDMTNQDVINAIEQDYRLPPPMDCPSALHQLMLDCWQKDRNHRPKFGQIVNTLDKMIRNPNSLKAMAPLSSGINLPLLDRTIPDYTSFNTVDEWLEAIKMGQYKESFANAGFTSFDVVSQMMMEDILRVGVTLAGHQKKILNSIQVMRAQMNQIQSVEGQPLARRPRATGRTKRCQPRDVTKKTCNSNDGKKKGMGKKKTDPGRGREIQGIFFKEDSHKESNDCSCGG
Chain of Jak2 (O60674 whole entry, looked up): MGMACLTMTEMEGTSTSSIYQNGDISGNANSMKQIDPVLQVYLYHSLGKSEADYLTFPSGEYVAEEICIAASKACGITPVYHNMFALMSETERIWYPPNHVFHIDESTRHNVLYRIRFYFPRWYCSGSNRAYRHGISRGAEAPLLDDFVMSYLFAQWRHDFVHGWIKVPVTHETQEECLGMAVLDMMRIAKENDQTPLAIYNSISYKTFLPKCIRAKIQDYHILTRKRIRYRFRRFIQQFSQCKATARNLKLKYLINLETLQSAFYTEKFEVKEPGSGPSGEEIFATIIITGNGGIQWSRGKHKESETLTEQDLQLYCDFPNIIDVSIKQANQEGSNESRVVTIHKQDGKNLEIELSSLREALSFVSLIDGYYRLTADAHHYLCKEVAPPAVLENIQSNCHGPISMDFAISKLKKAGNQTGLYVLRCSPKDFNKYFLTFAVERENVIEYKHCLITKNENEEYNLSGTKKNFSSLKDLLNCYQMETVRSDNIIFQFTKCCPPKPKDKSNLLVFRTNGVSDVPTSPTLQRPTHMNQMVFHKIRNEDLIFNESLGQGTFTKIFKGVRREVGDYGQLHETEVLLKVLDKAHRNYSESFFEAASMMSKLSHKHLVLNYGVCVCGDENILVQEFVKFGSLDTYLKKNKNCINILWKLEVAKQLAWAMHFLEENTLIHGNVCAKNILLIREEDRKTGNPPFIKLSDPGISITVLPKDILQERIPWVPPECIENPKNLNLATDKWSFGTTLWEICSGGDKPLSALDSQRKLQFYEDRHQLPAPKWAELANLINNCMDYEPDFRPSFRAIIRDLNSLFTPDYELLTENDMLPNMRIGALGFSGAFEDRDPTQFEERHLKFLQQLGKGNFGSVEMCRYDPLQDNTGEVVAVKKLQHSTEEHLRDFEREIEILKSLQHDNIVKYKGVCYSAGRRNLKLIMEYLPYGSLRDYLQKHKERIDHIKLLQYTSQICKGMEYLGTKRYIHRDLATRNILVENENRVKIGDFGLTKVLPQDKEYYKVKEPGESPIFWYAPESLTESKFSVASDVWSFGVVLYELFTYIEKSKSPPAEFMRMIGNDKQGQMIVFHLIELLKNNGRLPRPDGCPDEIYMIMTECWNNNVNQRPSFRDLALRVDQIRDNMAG
Chain of EPHB1 (P54762 whole entry, looked up): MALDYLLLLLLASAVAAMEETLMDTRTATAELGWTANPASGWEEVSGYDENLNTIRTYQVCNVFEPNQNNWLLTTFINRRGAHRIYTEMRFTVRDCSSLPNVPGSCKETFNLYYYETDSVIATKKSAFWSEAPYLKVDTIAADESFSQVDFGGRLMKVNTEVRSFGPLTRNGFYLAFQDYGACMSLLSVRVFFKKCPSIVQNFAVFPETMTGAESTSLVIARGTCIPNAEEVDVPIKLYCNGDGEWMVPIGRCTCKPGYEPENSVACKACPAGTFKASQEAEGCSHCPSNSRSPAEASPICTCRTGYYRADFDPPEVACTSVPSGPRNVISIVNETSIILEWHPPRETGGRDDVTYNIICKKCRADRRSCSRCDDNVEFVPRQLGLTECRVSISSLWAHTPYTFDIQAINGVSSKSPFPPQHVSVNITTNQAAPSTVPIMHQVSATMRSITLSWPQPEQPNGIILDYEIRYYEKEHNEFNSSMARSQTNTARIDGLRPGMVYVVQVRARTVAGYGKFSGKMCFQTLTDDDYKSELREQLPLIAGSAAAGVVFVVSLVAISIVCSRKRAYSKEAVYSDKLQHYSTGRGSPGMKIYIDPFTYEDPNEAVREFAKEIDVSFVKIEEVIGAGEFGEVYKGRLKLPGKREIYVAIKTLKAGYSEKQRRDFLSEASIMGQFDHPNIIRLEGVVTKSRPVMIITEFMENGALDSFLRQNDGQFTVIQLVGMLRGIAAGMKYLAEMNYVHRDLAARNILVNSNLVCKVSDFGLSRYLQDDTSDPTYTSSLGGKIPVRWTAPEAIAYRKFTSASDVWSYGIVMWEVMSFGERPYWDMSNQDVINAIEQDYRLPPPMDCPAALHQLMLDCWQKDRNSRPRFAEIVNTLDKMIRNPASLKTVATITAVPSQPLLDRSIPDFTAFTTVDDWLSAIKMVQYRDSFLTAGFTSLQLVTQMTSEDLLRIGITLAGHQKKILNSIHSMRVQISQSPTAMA
Chain of Fyn (P06241 whole entry, looked up): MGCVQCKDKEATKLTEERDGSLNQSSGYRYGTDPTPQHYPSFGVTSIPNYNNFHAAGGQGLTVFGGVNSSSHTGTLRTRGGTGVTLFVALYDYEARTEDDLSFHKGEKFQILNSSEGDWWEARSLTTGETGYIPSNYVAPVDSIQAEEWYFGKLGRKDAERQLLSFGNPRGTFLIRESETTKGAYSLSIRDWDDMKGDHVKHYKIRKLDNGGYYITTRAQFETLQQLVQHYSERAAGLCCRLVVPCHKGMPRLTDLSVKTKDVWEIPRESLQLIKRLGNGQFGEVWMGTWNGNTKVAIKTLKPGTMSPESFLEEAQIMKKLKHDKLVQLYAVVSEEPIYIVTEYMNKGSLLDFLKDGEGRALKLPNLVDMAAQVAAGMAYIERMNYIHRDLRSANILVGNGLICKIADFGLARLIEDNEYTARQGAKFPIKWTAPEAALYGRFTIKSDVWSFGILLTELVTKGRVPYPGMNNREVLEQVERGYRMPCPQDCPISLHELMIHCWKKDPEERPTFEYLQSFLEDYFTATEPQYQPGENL

Regarding NRSSLYLVAGP [KIAA1614_Y1083], the phosphorylation enrichment worked out at 0.915 with AncSZ; 1.09 in the series with MERTK; 0.556 in the series with FGFR1; 0.534 in the series with Fyn; 0.495 with Fer (mouse); 0.91 in the series with Fes. The phosphorylation enrichment with c-Abl (mouse) was 0.642; in the series with Hck, 0.619; in the series with Jak2 it was 0.698; with c-Src, 0.434; with EPHB1, 0.591; with EPHB2 it was 0.517. Moreover, in the series with FGFR3, the phosphorylation enrichment came out at 0.607. Moreover, the SH2 binding enrichment with SHP2-C SH2 was 0.92; with Grb2 SH2, 0.756; with c-Src SH2 it was 0.543.
As to NRVEIYDKTVE [CYFIP1_Y108_E109D], the phosphorylation enrichment stood at 0.905 in the series on AncSZ; 0.4 in the series with MERTK; 0.534 with FGFR1; 0.443 with Fyn; 0.435 with Fer (mouse); 0.938 in the series with Fes. The phosphorylation enrichment worked out at 0.576 in the series on c-Abl (mouse); 0.682 with Hck; 0.755 with Jak2; 0.47 in the series with c-Src; 0.495 with EPHB1; 0.521 in the series with EPHB2. Also, in the series with FGFR3, the phosphorylation enrichment came to 0.519. For the same sequence, the SH2 binding enrichment with SHP2-C SH2 came out at 0.504; with Grb2 SH2, 1.15; with c-Src SH2, 0.798.
For NTADFYDLFGG [PTPN11_Y63_G60A_YF], the phosphorylation enrichment with AncSZ worked out at 0.993; with MERTK, 2.3; with FGFR1, 0.515; with Fyn, 4.53; in the series with Fer (mouse), 1.6; with Fes, 1.12. Also, the phosphorylation enrichment in the series on c-Abl (mouse) was 0.8; with Hck, 3.02; with Jak2 it was 1.2; with c-Src it was 4.45; with EPHB1 it was 0.628; in the series with EPHB2, 0.591. Besides, the phosphorylation enrichment in the series with FGFR3 was 0.608. The SH2 binding enrichment is 0.785 with SHP2-C SH2, 0.847 in the series with Grb2 SH2 and 0.55 with c-Src SH2.
Consider NTFEKYLGEEF [TF_Y669_YF], for which the phosphorylation enrichment is 1.08 with AncSZ; 0.379 in the series with MERTK; 0.509 with FGFR1; 0.454 in the series with Fyn; 0.491 in the series with Fer (mouse); 1.21 with Fes. Besides, the phosphorylation enrichment with c-Abl (mouse) was 0.641; with Hck it was 0.479; in the series with Jak2, 0.922; with c-Src, 0.429; with EPHB1, 0.587; with EPHB2, 0.572. The phosphorylation enrichment in the series with FGFR3 turned out to be 0.75. Further, the SH2 binding enrichment was determined as 0.656 with SHP2-C SH2, 0.667 with Grb2 SH2 and 0.378 in the series with c-Src SH2.
For NTGDDYDLFGG [PTPN11_Y63_Y62D_YF], the phosphorylation enrichment in the series on AncSZ was 1.42; with MERTK, 0.412; with FGFR1 it was 0.546; in the series with Fyn it was 0.722; in the series with Fer (mouse), 0.623; with Fes it was 1.21. Besides, the phosphorylation enrichment with c-Abl (mouse) was found to be 0.826; in the series with Hck, 0.618; with Jak2, 1.05; in the series with c-Src it was 1.02; in the series with EPHB1 it was 0.586; with EPHB2, 0.608. For the same sequence, the phosphorylation enrichment with FGFR3 is 0.652. Also, the SH2 binding enrichment with SHP2-C SH2 came to 0.439; with Grb2 SH2 it was 0.666; in the series with c-Src SH2 it was 0.376.
For the sequence NTGDDYDLYGG [PTPN11_Y63_Y62D], the phosphorylation enrichment came to 1.33 with AncSZ; 0.494 with MERTK; 0.51 with FGFR1; 1.51 with Fyn; 0.775 in the series on Fer (mouse); 1.17 with Fes. Further, the phosphorylation enrichment with c-Abl (mouse) is 0.684; with Hck it was 2.47; in the series with Jak2, 0.912; in the series with c-Src, 1.65; with EPHB1, 0.581; in the series with EPHB2, 1.05. In the series with FGFR3, the phosphorylation enrichment turned out to be 0.683. Further, the SH2 binding enrichment in the series with SHP2-C SH2 turned out to be 0.521; with Grb2 SH2 it was 0.804; in the series with c-Src SH2, 0.522.
In the case of NTGDYCDLYGG [PTPN11_Y63_Y63C], the phosphorylation enrichment with AncSZ came out at 2.71; with MERTK, 0.838; with FGFR1 it was 7.05; with Fyn, 2.26; in the series with Fer (mouse), 1.48; in the series with Fes, 1.16. Besides, the phosphorylation enrichment with c-Abl (mouse) came to 0.877; with Hck, 3.78; with Jak2, 1.04; in the series with c-Src, 2.91; with EPHB1, 9.45; with EPHB2, 11.3. In addition, the phosphorylation enrichment in the series with FGFR3 stood at 4.75. Besides, the values for the SH2 binding enrichment in the series with SHP2-C SH2, in the series with Grb2 SH2 and with c-Src SH2 were 0.747, 1.01 and 0.988, respectively.
